Reference: patent US9644034B2, “Anti-RSPO2 antibodies and uses thereof” (OncoMed Pharmaceuticals, Inc., priority 2011, dated 2017)

Experiments:
LGR5 = target: T1, LGR5 (Homo sapiens, UniProt O75473); assay: FACS binding of RSPO-Fc fusion proteins to LGR5 expressed on HEK-293 cells; settings: Fc fusion proteins 10 μg/ml
T1 construct: ligating amino acids 22-564 of human LGR5 to an N-terminal FLAG tag; expressed in transfected cells; host or cells: HEK-293
T1 sequence (O75473 22-564): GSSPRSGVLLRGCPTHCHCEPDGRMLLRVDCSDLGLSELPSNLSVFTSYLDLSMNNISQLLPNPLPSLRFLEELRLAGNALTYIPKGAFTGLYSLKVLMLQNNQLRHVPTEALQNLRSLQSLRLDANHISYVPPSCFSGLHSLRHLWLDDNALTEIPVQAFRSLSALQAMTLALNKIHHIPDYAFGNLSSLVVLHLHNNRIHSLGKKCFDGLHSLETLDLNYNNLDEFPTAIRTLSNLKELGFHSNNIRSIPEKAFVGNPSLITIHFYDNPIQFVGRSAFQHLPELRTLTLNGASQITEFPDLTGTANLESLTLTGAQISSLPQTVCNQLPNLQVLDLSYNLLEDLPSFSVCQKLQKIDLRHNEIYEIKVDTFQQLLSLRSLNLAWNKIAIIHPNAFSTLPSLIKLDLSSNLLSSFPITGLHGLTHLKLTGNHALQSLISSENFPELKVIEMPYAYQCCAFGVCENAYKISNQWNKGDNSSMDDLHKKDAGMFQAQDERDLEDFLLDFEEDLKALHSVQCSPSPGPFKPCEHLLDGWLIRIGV
Description: A cell surface LGR5 protein was generated by ligating amino acids 22-564 of human LGR5 to an N-terminal FLAG tag and to the transmembrane domain of CD4 and a C-terminal GFP protein tag using standard recombinant DNA techniques (FLAG-LGR5-CD4TM-GFP). RSPO-Fc constructs were generated using standard recombinant DNA techniques. Specifically, full-length human RSPO1, RSPO2, RSPO3 and RSPO4 were ligated in-frame to a human Fc region and the recombinant RSPO-Fc proteins were expressed in insect cells using baculovirus. The fusion proteins were purified from the insect medium using protein A chromatography.
(§1) HEK-293 cells were transiently transfected with the FLAG-LGR5-CD4TM-GFP construct. After 48 hours, transfected cells were suspended in ice cold PBS containing 2% FBS and heparin and incubated on ice in the presence of 10 μg/ml RSPO1-Fc, RSPO2-Fc, RSPO3-Fc, RSPO4-Fc, or FZD8-Fc fusion proteins for 15 minutes. A second incubation with 100 μl PE-conjugated anti-human Fc secondary antibody was performed to detect cells bound by the Fc fusion proteins. Cells were incubated with an anti-FLAG antibody (Sigma-Aldrich, St. Louis, Mo.) as a positive control and with an anti-PE antibody as a negative control. The cells were analyzed on a FACSCalibur instrument (BD Biosciences, San Jose, Calif.) and the data was processed using FlowJo software.

human RSPO1 [1] = target: T2, human RSPO1 (Homo sapiens, UniProt Q2MKA7); assay: FACS screening of hybridoma supernatants on HEK-293 cells expressing FLAG-RSPO1furin-CD4TM-GFP; type: binding
T2 construct: followed by the two furin-like domains of RSPO1 (aa 34-135); expressed in transfected cells; host or cells: HEK-293
Description: Antibodies were generated against recombinant human RSPO1 protein amino acids 31-263 (R&D Systems, Minneapolis, Minn.). Mice (n=3) were immunized with RSPO1 protein using standard techniques. Sera from individual mice were screened against RSPO1 approximately 70 days after initial immunization using FACS analysis. The animal with the highest antibody titer was selected for final antigen boost after which spleen cells were isolated for hybridoma production. SP2/0 cells were used as fusion partners for the mouse spleen cells. Hybridoma cells were plated at 1 cell per well in 96 well plates, and the supernatants were screened against human RSPO1 by FACS analysis.
For FACS screening of anti-RSPO1 antibodies a chimeric fusion protein enabling cell surface expression of the N-terminal furin-like domains of human RSPO1 was constructed.
as §1, with “were” for “were transiently”, “FLAG-RSPOlfurin-CD4TM-GFP.” for “the FLAG-LGR5-CD4TM-GFP construct.”, “50 μl of hybridoma supernatants” for “10 μg/ml RSPO1-Fc, RSPO2-Fc, RSPO3-Fc, RSPO4-Fc, or FZD8-Fc fusion proteins”, “30” for “15”, “antibody.” for “the Fc fusion proteins.”, “and” for “and with”

[2] = test system: RSPO1-induced β-catenin signaling; assay: TOPflash luciferase assay in HEK-293 cells, Wnt3a plus human RSPO1; type: cell-based; settings: Wnt3a 5 ng/ml, RSPO1 10 ng/ml; antibodies 10 to 0.625 μg/ml
Description: HEK-293 cells were transfected with a 6×TCF-luciferase reporter vector (TOPflash, Millipore, Billerica, Mass.). After 24-48 hrs, the transfected HEK-293 cells were incubated with a combination of Wnt3a (5 ng/ml) and human RSPO1 (10 ng/ml, R&D BioSystems) in the presence of anti-RSPO1 antibodies 89M2, 89M4, 89M5, 89M7, 89M19, and 89M25, or 2 irrelevant control antibodies 254M14 and 254M26 (2-fold dilutions at 10 μg/ml to 0.625 μg/ml). The cells were incubated for 16 hours and luciferase activity was measured using Steady-Glo® Luciferase Assay System according to the manufacturer's instructions (Promega, Madison, Wis.).

binding of RSPO1 to LGR5 = target: T3, binding of RSPO1 to LGR5 (Homo sapiens, UniProt Q2MKA7); assay: FACS: blocking of soluble RSPO1-Fc binding to LGR5 on HEK-293 cells; settings: RSPO1-Fc 10 μg/ml, antibodies 10 μg/ml
T3 construct: full-length human RSPO1, RSPO2, RSPO3 and RSPO4 were ligated in-frame to a human Fc region; made in house; host or cells: RSPO1-Fc: insect cells (baculovirus); LGR5 construct: transiently transfected HEK-293
Description: HEK-293 cells were transiently transfected with the FLAG-LGR5-CD4TM-GFP construct (previously described in Example 2). After 48 hours, transfected cells were suspended in ice cold PBS containing 2% FBS and heparin and incubated on ice in the presence of RSPO1-Fc protein (10 μg/ml) and antibodies 89M2, 89M4, 89M5, 89M7, 89M19 or 89M25 (10 μg/ml). A second incubation with 100 μl PE-conjugated anti-human Fc secondary antibody was performed to detect cells bound by the RSPO1-Fc fusion protein. The cells were analyzed on a FACSCalibur instrument (BD Biosciences, San Jose, Calif.) and the data was processed using FlowJo software.

OV19 ovarian tumor cells = assay: OV19 ovarian tumor xenograft growth in NOD/SCID mice; type: in vivo; settings: day 35, vs control antibody; antibodies 15 mg/kg once a week, intraperitoneal
Description: Dissociated OV19 ovarian tumor cells (1×10^5cells) were injected in the mammary fat pads of 6-8 week old NOD/SCID mice. Tumors were allowed to grow for 45 days until they reached an average volume of 134 mm^3. The mice were randomized (n=10 per group) and treated with anti-RSPO1 antibody 89M5, 89M25, taxol, a combination of 89M5 and taxol, a combination of 89M25 and taxol, or control antibody 1B7.11. Antibodies were dosed at 15 mg/kg once a week, and taxol was dosed at […] once a week. Administration of the antibodies and taxol was performed via injection into the intraperitoneal cavity. Tumor growth was monitored and tumor volumes were measured with electronic calipers at the indicated time points. Data are expressed as mean±S.E.M.

human RSPO1 [3] = target: T2, human RSPO1; assay: FACS binding of 89M5 and humanized 89M5 to HEK293 cells expressing FLAG-RSPO1furin-CD4TM-GFP; settings: five-fold serial dilutions
Description: HEK293 cells were transiently transfected with an expression vector encoding FLAG-RSPO1furin-CD4TM-GFP. As described in Example 5, FLAG-RSPO1furin-CD4TM-GFP is a chimeric fusion protein enabling cell surface expression of the N-terminal furin-like domains of human RSPO1. FLAG-RSPO1 furin-CD4TM-GFP transfected cells were incubated in the presence of anti-RSPO1 antibody 89M5 or humanized anti-RSPO1 antibody h89M5-H2L2. Five-fold serial dilutions of each antibody were examined for their ability to bind to the RSPO1 expressing cells. The cells were stained with Phycoerythrin conjugated anti-IgG to reveal bound antibody. The cells were analyzed on a FACSCalibur instrument (BD Biosciences, San Jose, Calif.) and the data was processed using FlowJo software.

T2 sequence (Q2MKA7 34-135): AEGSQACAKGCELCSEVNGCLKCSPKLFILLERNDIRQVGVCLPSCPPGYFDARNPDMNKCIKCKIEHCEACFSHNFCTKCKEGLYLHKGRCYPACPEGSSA
T3 sequence (Q2MKA7 21-263): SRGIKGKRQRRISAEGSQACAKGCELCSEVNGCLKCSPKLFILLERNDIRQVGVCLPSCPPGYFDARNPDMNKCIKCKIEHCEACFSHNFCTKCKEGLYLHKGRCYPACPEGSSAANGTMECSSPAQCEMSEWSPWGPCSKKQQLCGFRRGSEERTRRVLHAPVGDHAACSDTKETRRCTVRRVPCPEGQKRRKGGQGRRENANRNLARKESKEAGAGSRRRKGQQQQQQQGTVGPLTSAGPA

B1: RSPO3: full-length human RSPO3 ligated to a human Fc region (protein)
chain: QNASRGRRQRRMHPNVSQGCQGGCATCSDYNGCLSCKPRLFFALERIGMKQIGVCLSSCPSGYYGTRYPDINKCTKCKADCDTCFNKNFCTKCKSGFYLHLGKCLDNCPEGLEANNHTMECVSIVHCEVSEWNPWSPCTKKGKTCGFKRGTETRVREIIQHPSAKGNLCPPTNETRKCTVQRKKCQKGERGKKGRERKRKKPNKGESKEAIPDSKSLESSKEIPEQRENKQQQKKRKVQDKQKSVSVSTVH
For B1, the “binding to LGR5 expressed on the surface of HEK-293 cells” value (LGR5) was “bound”.

B2: RSPO4: full-length human RSPO4 ligated to a human Fc region (protein)
chain: LNRRKKQVGTGLGGNCTGCIICSEENGCSTCQQRLFLFIRREGIRQYGKCLHDCPPGYFGIRGQEVNRCKKCGATCESCFSQDFCIRCKRQFYLYKGKCLPTCPPGTLAHQNTRECQGECELGPWGGWSPCTHNGKTCGSAWGLESRVREAGRAGHEEAATCQVLSESRKCPIQRPCPGERSPGQKKGRKDRRPRKDRKLDRRLDVRPRQPGLQP
modifications: left off: a dimerising Fc or GST
notes: full-length human RSPO4 ligated to a human Fc region
For B2, the “binding to LGR5 expressed on the surface of HEK-293 cells” value (LGR5) was “bound”.

B3: 89M25: anti-RSPO1 monoclonal antibody; same heavy and light chain variable regions as 89M5 (antibody, V domains shown)
VH: EVQLQQSGPELVKPGASVKISCKTSGYTFTGYTMHWVRQSHGKTLEWIGGINPNNGGTTYNQNFKGKATLTVEKSSTTAYLELRSLTSEDSALYYCARKEFSDGYYFFAYWGQGTLVTVSA
VL: DIVMTQSHKFMSTSVGDRVNITCKASQDVIFAVAWYQQKPGQSPKLLIYWASTRHTGVPDRFTGSVSGTDYTLTISSVQAEDLALYYCQQHYSTPWTFGGGTKLEIK
With B3 the “binding to RSPO1 (FACS)” value (human RSPO1 [1]) was “bound”, the “blocking of RSPO1-induced β-catenin signaling” value [2] was “blocked” and the “blocking of binding of RSPO1 to LGR5” value (binding of RSPO1 to LGR5) was “blocked”. For the same molecule, the “reduction in tumor growth” value (OV19 ovarian tumor cells) was 25%.

B4: h89M5-H2L2: humanized anti-RSPO1 antibody; heavy chain SEQ ID NO:68, light chain SEQ ID NO:69 (antibody)
heavy: QVQLVQSGAEVKKPGASVKVSCKTSGYTFTGYTMHWVRQAPGQRLEWMGGINPNNGGTTYNQNFKGRVTITRDTSASTAYMELSSLRSEDTAVYYCARKEFSDGYYFFAYWGQGTLVTVSSASTKGPSVFPLAPCSRSTSESTAALGCLVKDYFPEPVTVSWNSGALTSGVHTFPAVLQSSGLYSLSSVVTVPSSNFGTQTYTCNVDHKPSNTKVDKTVERKCCVECPPCPAPPVAGPSVFLFPPKPKDTLMISRTPEVTCVVVDVSHEDPEVQFNWYVDGVEVHNAKTKPREEQFNSTFRVVSVLTVVHQDWLNGKEYKCKVSNKGLPAPIEKTISKTKGQPREPQVYTLPPSREEMTKNQVSLTCLVKGFYPSDIAVEWESNGQPENNYKTTPPMLDSDGSFFLYSKLTVDKSRWQQGNVFSCSVMHEALHNHYTQKSLSLSPGK
light: DIQMTQSPSSLSASVGDRVTITCKASQDVIFAVAWYQQKPGKAPKLLIYWASTRHTGVPSRFSGSGSGTDYTLTISSLQPEDFATYYCQQHYSTPWTFGGGTKVEIKRTVAAPSVFIFPPSDEQLKSGTASVVCLLNNFYPREAKVQWKVDNALQSGNSQESVTEQDSKDSTYSLSNTLTLSKADYEKHKVYACEVTHQGLSSPVTKSFNRGEC
modifications: h89M5-H2L2 Heavy chain amino acid sequence; h89M5-H2L2 Light chain amino acid sequence
With B4 the “binding to human RSPO1 (FACS)” value (human RSPO1 [3]) was “bind”.
